One experiment addresses H3K9me3 mononucleosome (trimethyl-lysine at 9 (H3K9me3)). Kind of experiment: apparent K1/2 by EMSA.
In the next experiment the target is H3K9me0 mononucleosome. Put plainly: apparent K1/2 by EMSA.

Residue numbers refer to the chain shown, from its start. Names and notes keep the numbering of the source.

B1: Chp2-WT (recombinant) (natural protein)
chain: MVKSADLDLMNSIISESDENFSPPPFTVEEAENSINNKSSTASLESPQNGSWHPSLYGLSVPEKTHIQNSLDLYSHGNSGSQKTHNVSFSCEIRKVKSSKLSPISNMEDSEDKKEEDESSSYKNEFKSSSSASVSSNFEKTSGSDDHNSQSPVPLNEGFEYIASSGSEDKNSDEEFAVEMILDSRMKKDGSGFQYYLKWEGYDDPSDNTWNDEEDCAGCLELIDAYWESRGGKPDLSSLIRLTRSRARSSNEASYVEKDESSNSDDSISYKRRRSRNAANRITDYVDSDLSESSMKEKQSKIEKYMKSDKSSKNFKPPFQKKSWEDLVDCVKTVQQLDNGKLIAKIKWKNGYVSTHDNIIIHQKCPLKIIEYYEAHIKFT
In the case of B1, the Kd in the experiment with H3K9me3 mononucleosome was 0.066 µM; with H3K9me0 mononucleosome, 0.134 µM.

B2: Chp2 W199A (recombinant) (natural protein)
chain: B1 chain with W199A
Consider B2, for which the figures for the Kd with H3K9me3 mononucleosome and in the experiment with H3K9me0 mononucleosome were 0.145 µM and 0.135 µM, respectively.

For the origin of these results see publication PMC11472046 (2024).
